From US20150203577A1 (Chugai, published 2015)
Numbering of substitutions follows the chain as printed. Numbers in names are those of the source.

T1: mouse FcγRIII extracellular domain with C-terminal His tag (mouse, UniProt P08508 31-215)
T1 construct: Made on the basis of NCBI NP-034318.2; also called mFcγRIII; mFcgRIII
T1 chain: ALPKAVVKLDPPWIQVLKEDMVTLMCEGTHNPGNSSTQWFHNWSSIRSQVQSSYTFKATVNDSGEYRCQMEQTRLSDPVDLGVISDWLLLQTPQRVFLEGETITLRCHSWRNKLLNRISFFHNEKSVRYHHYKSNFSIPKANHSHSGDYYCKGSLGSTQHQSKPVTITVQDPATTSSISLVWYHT

T2: mouse FcγRII extracellular domain with C-terminal His tag (mouse, UniProt P08101 30-210)
T2 construct: Made on the basis of NCBI NP-034317.1; also called mFcγRII; mFcgRII
T2 sequence: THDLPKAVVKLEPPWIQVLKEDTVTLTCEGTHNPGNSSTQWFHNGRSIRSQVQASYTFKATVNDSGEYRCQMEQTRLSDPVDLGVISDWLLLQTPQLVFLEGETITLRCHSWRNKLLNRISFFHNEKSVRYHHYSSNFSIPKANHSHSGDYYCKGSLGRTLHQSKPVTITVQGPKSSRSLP

B1: H237-MB432/MRAL-k0 (antibody, mouse IgG1, kappa)
heavy: QVQLQESGPGLVKPSETLSLTCAVSGHSISHDHAWSWVRQPPGEGLEWIGFISYSGITNYNPSLQGRVTISRDNSKNTLYLQMNSLRAEDTAVYYCARSLARTTAMDYWGEGTLVTVSSAKTTPPSVYPLAPGSAAQTNSMVTLGCLVKGYFPEPVTVTWNSGSLSSGVHTFPAVLQSDLYTLSSSVTVPSSTWPSETVTCNVAHPASSTKVDKKIVPRDCGCKPCICQPNEVEDVFIFPPKPKDVLTITLTPKVTCVVVDISKDDPEVQFSWFVDDVEVHTAQTQPREEQFNSTFRSVSELPIMHQDWLNGKEFKCRVNSAAFPAPIEKTISKTKGRPKAPQVYTIPPPKEQMAKDKVSLTCMITDFFPEDITVEWQWNGQPAENYKNTQPIMDTDGSYFVYSKLNVQKSNWEAGNTFTCSVLHEGLHNHHTEKSLSHSPGK
light: not shown
notes: mIgG1 with T230Q/V231P/P232N/S238E/S239D (EU); template T9; copies: 2 + 2
B2: H237-MB474/MRAL-k0 (antibody, mouse IgG1, kappa)
heavy: B1 heavy with Q229I, N231A, D235E
light: not shown
notes: copies: 2 + 2
B3: H237-MB475/MRAL-k0 (antibody, mouse IgG1, kappa)
heavy: B1 heavy with Q229E, D235E
light: not shown
notes: copies: 2 + 2
B4: H237-MB476/MRAL-k0 (antibody, mouse IgG1, kappa)
heavy: B1 heavy with D235E
light: not shown
notes: mIgG1 with T230Q/V231P/P232N/S238E/S239E (EU); copies: 2 + 2
B5: H237-MB486/MRAL-k0 (antibody, mouse IgG1, kappa)
heavy: B1 heavy with Q229E, N231A, D235S
light: not shown
notes: copies: 2 + 2
B6: H237-MB513/MRAL-k0 (antibody, mouse IgG1, kappa)
heavy: B1 heavy with Q229E, N231A, D235M
light: not shown
notes: copies: 2 + 2
B7: H237-MB515/MRAL-k0 (antibody, mouse IgG1, kappa)
heavy: B1 heavy with Q229E, D235M
light: not shown
notes: mIgG1 with T230E/V231P/P232N/S238E/S239M (EU); copies: 2 + 2
B8: H237-MB524/MRAL-k0 (antibody)
heavy: B1 heavy with Q229E, D235W
light: not shown
notes: copies: 2 + 2

Biological target: T1, mouse FcγRIII extracellular domain with …
Test: SPR Biacore T200
Protocol: (§1) Each altered antibody was analyzed for its interaction with each Fcγ receptor prepared above using Biacore T100 (GE Healthcare Japan Corp.), Biacore T200 (GE Healthcare Japan Corp.), Biacore A100, or Biacore 4000. The running buffer used was HBS-EP+ (GE Healthcare Japan Corp.). The assay temperature was set to 25° C. The sensor chips used were chips prepared by immobilizing Protein L (ACTIGEN or BioVision) onto Series S Sensor Chip CM5 (GE Healthcare Japan Corp.) or Series S Sensor Chip CM4 (GE Healthcare Japan Corp.) by the amine coupling method.
(§2) In order to calculate the KD value of each altered antibody for FcγR, kinetic analysis was conducted according to the following method: first, the antibody of interest was captured onto any of these chips and allowed to interact with mFcγR diluted with a running buffer. For the obtained sensorgram, the assay results were globally fit into the 1:1 Langmuir binding model using Biacore Evaluation Software to calculate an association rate constant ka (L/mol/s) and a dissociation rate constant kd (1/s). From these values, the dissociation constant KD (mol/L) was calculated.

Binder	Kd
B1	26.4 nM
B2	247 nM
B3	81.4 nM
B4	84 nM
B5	258 nM
B6	509 nM
B7	171 nM
B8	837 nM

biological target: T2, mouse FcγRII extracellular domain with …; test: SPR Biacore T200
Protocol: as §1, §2

Binder	Kd
B1	0.613 nM
B2	4.89 nM
B3	0.979 nM
B4	0.854 nM
B5	7.47 nM
B6	4.53 nM
B7	1.27 nM
B8	21 nM

biological target: T2, mouse FcγRII extracellular domain with …; test: SPR Biacore T200; KD mFcγRIII / KD mFcγRII

Binder	I/A (mFcγRII selectivity)	relative I/A (mFcγRII selectivity) (mIgG1 = 1)
B1	43.1	32.2

Biological target: T1, mouse FcγRIII extracellular domain with …
Test: SPR Biacore T200
Remark: another data set of the same source

Binder	Kd	relative mFcγRIII-binding activity (mIgG1 = 1)
B1	26.4 nM	10.7

biological target: T2, mouse FcγRII extracellular domain with …; test: SPR Biacore T200; remark: another data set of the same source

Binder	Kd	relative mFcγRII-binding activity (mIgG1 = 1)
B1	0.613 nM	343

Biological target: T1, mouse FcγRIII extracellular domain with …
Test: SPR Biacore T200
Remark: another data set of the same source
Protocol: as §1, §2

Binder	relative mFcγRIII-binding activity (mIgG1 = 1)
B1	10.7
B2	1.1
B3	3.5
B4	3.4
B5	1.1
B6	0.6
B7	1.7
B8	0.3

biological target: T2, mouse FcγRII extracellular domain with …; test: SPR Biacore T200; remark: another data set of the same source
Protocol: as §1, §2

Binder	relative mFcγRII-binding activity (mIgG1 = 1)
B1	343
B2	42.9
B3	214
B4	246
B5	28.1
B6	46.3
B7	165
B8	10
